Reference: article PMC5100564 (Nucleic Acids Research, 2016)

Biological target: T1, recombinant GST-Scd6 (S. cerevisiae, UniProt P45978 1-349)
T1 sequence (looked up): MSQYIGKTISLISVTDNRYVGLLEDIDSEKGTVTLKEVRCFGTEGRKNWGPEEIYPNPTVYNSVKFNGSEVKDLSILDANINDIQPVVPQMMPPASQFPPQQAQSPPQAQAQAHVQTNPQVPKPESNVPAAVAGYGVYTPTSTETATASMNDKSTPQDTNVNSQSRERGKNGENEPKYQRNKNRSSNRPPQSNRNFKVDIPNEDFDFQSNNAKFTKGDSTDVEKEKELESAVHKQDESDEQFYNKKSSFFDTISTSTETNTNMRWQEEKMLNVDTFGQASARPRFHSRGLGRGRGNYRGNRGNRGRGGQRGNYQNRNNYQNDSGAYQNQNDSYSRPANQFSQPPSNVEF
Test: pull-down

B1: recombinant purified His-Hmt1 (enzyme, S. cerevisiae, UniProt P38074 1-348, looked up)
chain: MSKTAVKDSATEKTKLSESEQHYFNSYDHYGIHEEMLQDTVRTLSYRNAIIQNKDLFKDKIVLDVGCGTGILSMFAAKHGAKHVIGVDMSSIIEMAKELVELNGFSDKITLLRGKLEDVHLPFPKVDIIISEWMGYFLLYESMMDTVLYARDHYLVEGGLIFPDKCSIHLAGLEDSQYKDEKLNYWQDVYGFDYSPFVPLVLHEPIVDTVERNNVNTTSDKLIEFDLNTVKISDLAFKSNFKLTAKRQDMINGIVTWFDIVFPAPKGKRPVEFSTGPHAPYTHWKQTIFYFPDDLDAETGDTIEGELVCSPNEKNNRDLNIKISYKFESNGIDGNSRSRKNEGSYLMH
binding result: binds
